Experimental data published in patent US20140213531A1 (POLYPHOR, published 2014).
Bridges are numbered along the chain shown (N, C = ends). [ ]: non-standard residue; d: D form. Pro(5R-Ph) = O=C(O)[C@@H]1CC[C@H](c2ccccc2)N1

T1: Elastase from human neutrophils (human, UniProt P08246 30-247, limits assumed)
T1 sequence (looked up): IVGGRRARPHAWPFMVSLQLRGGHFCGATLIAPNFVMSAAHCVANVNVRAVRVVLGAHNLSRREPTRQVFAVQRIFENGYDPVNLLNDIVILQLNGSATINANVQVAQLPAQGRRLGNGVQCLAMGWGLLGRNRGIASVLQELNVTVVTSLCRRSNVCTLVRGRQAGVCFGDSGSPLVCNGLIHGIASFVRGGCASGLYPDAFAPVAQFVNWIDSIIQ

T2: Chymase, from human skin (human, UniProt P23946 22-247)
T2 sequence (looked up): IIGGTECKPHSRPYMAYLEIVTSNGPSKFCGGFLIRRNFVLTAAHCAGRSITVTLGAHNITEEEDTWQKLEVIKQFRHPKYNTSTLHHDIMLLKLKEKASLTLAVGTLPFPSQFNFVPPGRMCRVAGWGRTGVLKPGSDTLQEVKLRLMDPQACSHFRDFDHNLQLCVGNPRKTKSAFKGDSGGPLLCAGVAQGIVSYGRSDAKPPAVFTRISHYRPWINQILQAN

T3: CathepsinG, from human neutrophils (human, UniProt P08311 21-244)
T3 sequence (looked up): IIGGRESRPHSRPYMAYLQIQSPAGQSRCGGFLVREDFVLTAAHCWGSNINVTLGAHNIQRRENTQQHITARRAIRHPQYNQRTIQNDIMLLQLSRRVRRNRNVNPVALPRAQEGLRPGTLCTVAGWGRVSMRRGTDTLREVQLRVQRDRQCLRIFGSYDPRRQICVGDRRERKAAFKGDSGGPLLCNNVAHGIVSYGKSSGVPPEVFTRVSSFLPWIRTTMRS


Legend:
Assay in all cases: cell-based or functional assay
[1] = target: T1, Elastase from human neutrophils
[2] = target: Trypsin, Iodination grade, from human pancreas (human, UniProt P07477 24-247)
[3] = target: T2, Chymase, from human skin
[4] = target: Urokinase from human urine (human, UniProt P00749 21-431, limits assumed)
[5] = target: T3, CathepsinG, from human neutrophils
[6] = target: Chymotrypsin, from human pancreas (human, UniProt P17538 19-263)
Chain of Chymotrypsin, from human pancreas (P17538 19-263): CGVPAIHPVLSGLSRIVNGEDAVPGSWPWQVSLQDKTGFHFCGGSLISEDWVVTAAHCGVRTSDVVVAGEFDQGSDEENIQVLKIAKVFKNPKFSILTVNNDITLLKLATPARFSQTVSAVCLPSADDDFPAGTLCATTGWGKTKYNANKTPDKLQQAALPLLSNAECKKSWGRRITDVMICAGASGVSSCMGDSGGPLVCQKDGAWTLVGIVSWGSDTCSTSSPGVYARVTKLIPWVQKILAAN

[7] = target: Tryptase, from human lung (human, UniProt Q15661 31-275, limits assumed)
Chain of Tryptase, from human lung (Q15661 31-275 limits assumed): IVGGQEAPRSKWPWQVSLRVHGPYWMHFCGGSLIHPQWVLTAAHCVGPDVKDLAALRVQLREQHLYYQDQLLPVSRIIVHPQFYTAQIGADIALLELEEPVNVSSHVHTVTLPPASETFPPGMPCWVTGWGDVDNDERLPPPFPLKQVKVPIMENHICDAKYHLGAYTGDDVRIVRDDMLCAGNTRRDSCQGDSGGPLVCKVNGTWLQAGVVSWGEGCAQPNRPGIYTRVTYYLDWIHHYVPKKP

Binder	IC50 [1]	% inhibition at 100 µM [2]	% inhibition at 100 µM [3]	% inhibition at 100 µM [4]	IC50 [5]	% inhibition at 100 µM [1]	% inhibition at 100 µM [6]	% inhibition at 100 µM [7]
FCTKSDPPXCS (HELM PEPTIDE1{F.C.T.K.S.D.P.P.[Cha].C.S.[dP].P}$PEPTIDE1,PEPTIDE1,2:R3-10:R3|PEPTIDE1,PEPTIDE1,1:R1-13:R2$$$V2.0; SMILES C[C@@H](O)[C@@H]1NC(=O)[C@@H]2CSSC[C@H](NC(=O)[C@H](CC3CCCCC3)NC(=O)[C@@H]3CCCN3C(=O)[C@@H]3CCCN3C(=O)[C@H](CC(=O)O)NC(=O)[C@H](CO)NC(=O)[C@H](CCCCN)NC1=O)C(=O)N[C@@H](CO)C(=O)N1CCC[C@@H]1C(=O)N1CCC[C@H]1C(=O)N[C@@H](Cc1ccccc1)C(=O)N2) [Example 16]	> 100000 nmol	90%	12.9%	3.2%	66 nmol	–	–	–
XCTKSDPPICS (HELM PEPTIDE1{[O=C([C@@H](N[*:1])C1CCCCC1)[*:2]].C.T.K.S.D.P.P.I.C.S.[dP].P}$PEPTIDE1,PEPTIDE1,2:R3-10:R3|PEPTIDE1,PEPTIDE1,1:R1-13:R2$$$V2.0; SMILES CC[C@H](C)[C@@H]1NC(=O)[C@@H]2CCCN2C(=O)[C@@H]2CCCN2C(=O)[C@H](CC(=O)O)NC(=O)[C@H](CO)NC(=O)[C@H](CCCCN)NC(=O)[C@H]([C@@H](C)O)NC(=O)[C@@H]2CSSC[C@H](NC1=O)C(=O)N[C@@H](CO)C(=O)N1CCC[C@@H]1C(=O)N1CCC[C@H]1C(=O)N[C@@H](C1CCCCC1)C(=O)N2) [Example 11]	–	6.5%	12.1%	–	95 nmol	19%	73.6%	–
FCTKSDPPXCS (HELM PEPTIDE1{F.C.T.K.S.D.P.P.[Nle].C.S.[dP].P}$PEPTIDE1,PEPTIDE1,2:R3-10:R3|PEPTIDE1,PEPTIDE1,1:R1-13:R2$$$V2.0; SMILES CCCC[C@@H]1NC(=O)[C@@H]2CCCN2C(=O)[C@@H]2CCCN2C(=O)[C@H](CC(=O)O)NC(=O)[C@H](CO)NC(=O)[C@H](CCCCN)NC(=O)[C@H]([C@@H](C)O)NC(=O)[C@@H]2CSSC[C@H](NC1=O)C(=O)N[C@@H](CO)C(=O)N1CCC[C@@H]1C(=O)N1CCC[C@H]1C(=O)N[C@@H](Cc1ccccc1)C(=O)N2) [Example 15]	> 100000 nmol	95%	12.7%	–	56 nmol	–	–	–
RXTKSDPPIXF (HELM PEPTIDE1{R.[Nle].T.K.S.D.P.P.I.[Nle].F.[dP].P}$PEPTIDE1,PEPTIDE1,1:R1-13:R2$$$V2.0; SMILES CCCC[C@@H]1NC(=O)[C@H](CCCNC(=N)N)NC(=O)[C@@H]2CCCN2C(=O)[C@H]2CCCN2C(=O)[C@H](Cc2ccccc2)NC(=O)[C@H](CCCC)NC(=O)[C@H]([C@@H](C)CC)NC(=O)[C@@H]2CCCN2C(=O)[C@@H]2CCCN2C(=O)[C@H](CC(=O)O)NC(=O)[C@H](CO)NC(=O)[C@H](CCCCN)NC(=O)[C@H]([C@@H](C)O)NC1=O) [Example 8]	–	74.2%	71.7%	–	126 nmol	0.8%	5.6%	–
FCTKSEPPICS (HELM PEPTIDE1{F.C.T.K.S.E.P.P.I.C.S.[dP].P}$PEPTIDE1,PEPTIDE1,2:R3-10:R3|PEPTIDE1,PEPTIDE1,1:R1-13:R2$$$V2.0; SMILES CC[C@H](C)[C@@H]1NC(=O)[C@@H]2CCCN2C(=O)[C@@H]2CCCN2C(=O)[C@H](CCC(=O)O)NC(=O)[C@H](CO)NC(=O)[C@H](CCCCN)NC(=O)[C@H]([C@@H](C)O)NC(=O)[C@@H]2CSSC[C@H](NC1=O)C(=O)N[C@@H](CO)C(=O)N1CCC[C@@H]1C(=O)N1CCC[C@H]1C(=O)N[C@@H](Cc1ccccc1)C(=O)N2) [Example 21]	16.4 nmol	95.6%	5%	–	97 nmol	–	2.6%	–
XCTKSDPPICY (HELM PEPTIDE1{[Cha].C.T.K.S.D.P.P.I.C.Y.[dP].P}$PEPTIDE1,PEPTIDE1,2:R3-10:R3|PEPTIDE1,PEPTIDE1,1:R1-13:R2$$$V2.0; SMILES CC[C@H](C)[C@@H]1NC(=O)[C@@H]2CCCN2C(=O)[C@@H]2CCCN2C(=O)[C@H](CC(=O)O)NC(=O)[C@H](CO)NC(=O)[C@H](CCCCN)NC(=O)[C@H]([C@@H](C)O)NC(=O)[C@@H]2CSSC[C@H](NC1=O)C(=O)N[C@@H](Cc1ccc(O)cc1)C(=O)N1CCC[C@@H]1C(=O)N1CCC[C@H]1C(=O)N[C@@H](CC1CCCCC1)C(=O)N2) [Example 36]	–	–	–	0%	41 nmol	–	–	73.3%

Further lines, results first:

IC50 [1]	% inhibition at 100 µM [2]	% inhibition at 100 µM [3]	% inhibition at 100 µM [4]	IC50 [5]	% inhibition at 100 µM [1]	% inhibition at 100 µM [6]	% inhibition at 100 µM [7]	Binder
> 100000 nmol	94%	–	–	89 nmol	–	0%	–	FCTKSDPPICS (HELM PEPTIDE1{F.C.T.K.S.D.P.P.I.C.S.[dI].P}$PEPTIDE1,PEPTIDE1,2:R3-10:R3|PEPTIDE1,PEPTIDE1,1:R1-13:R2$$$V2.0; SMILES CC[C@@H](C)[C@H]1NC(=O)[C@H](CO)NC(=O)[C@@H]2CSSC[C@H](NC(=O)[C@H](Cc3ccccc3)NC(=O)[C@@H]3CCCN3C1=O)C(=O)N[C@@H]([C@@H](C)O)C(=O)N[C@@H](CCCCN)C(=O)N[C@@H](CO)C(=O)N[C@@H](CC(=O)O)C(=O)N1CCC[C@H]1C(=O)N1CCC[C@H]1C(=O)N[C@@H]([C@@H](C)CC)C(=O)N2) [Example 50]
> 100000 nmol	90%	12.9%	3.2%	66 nmol	–	–	–	FCTKSDPPXCS (HELM PEPTIDE1{F.C.T.K.S.D.P.P.[Cha].C.S.[dP].P}$PEPTIDE1,PEPTIDE1,2:R3-10:R3|PEPTIDE1,PEPTIDE1,1:R1-13:R2$$$V2.0; SMILES C[C@@H](O)[C@@H]1NC(=O)[C@@H]2CSSC[C@H](NC(=O)[C@H](CC3CCCCC3)NC(=O)[C@@H]3CCCN3C(=O)[C@@H]3CCCN3C(=O)[C@H](CC(=O)O)NC(=O)[C@H](CO)NC(=O)[C@H](CCCCN)NC1=O)C(=O)N[C@@H](CO)C(=O)N1CCC[C@@H]1C(=O)N1CCC[C@H]1C(=O)N[C@@H](Cc1ccccc1)C(=O)N2) [Example 54]
> 100000 nmol	90%	27.6%	–	55 nmol	–	16%	90.4%	ICTKSDPPQCR (HELM PEPTIDE1{I.C.T.K.S.D.P.P.Q.C.R.[dP].P}$PEPTIDE1,PEPTIDE1,2:R3-10:R3|PEPTIDE1,PEPTIDE1,1:R1-13:R2$$$V2.0; SMILES CC[C@H](C)[C@@H]1NC(=O)[C@@H]2CCCN2C(=O)[C@H]2CCCN2C(=O)[C@H](CCCNC(=N)N)NC(=O)[C@@H]2CSSC[C@H](NC1=O)C(=O)N[C@@H]([C@@H](C)O)C(=O)N[C@@H](CCCCN)C(=O)N[C@@H](CO)C(=O)N[C@@H](CC(=O)O)C(=O)N1CCC[C@H]1C(=O)N1CCC[C@H]1C(=O)N[C@@H](CCC(N)=O)C(=O)N2) [Example 55]
> 100000 nmol	93%	–	–	83 nmol	–	3%	–	cyclo(FCTKSDPPICS[dP][Pro(5R-Ph)]) (disulfide 2-10) [Example 48]
> 100000 nmol	94%	–	–	89 nmol	–	0%	–	FCTKSDPPICS (HELM PEPTIDE1{F.C.T.K.S.D.P.P.I.C.S.[dI].P}$PEPTIDE1,PEPTIDE1,2:R3-10:R3|PEPTIDE1,PEPTIDE1,1:R1-13:R2$$$V2.0; SMILES CC[C@@H](C)[C@H]1NC(=O)[C@H](CO)NC(=O)[C@@H]2CSSC[C@H](NC(=O)[C@H](Cc3ccccc3)NC(=O)[C@@H]3CCCN3C1=O)C(=O)N[C@@H]([C@@H](C)O)C(=O)N[C@@H](CCCCN)C(=O)N[C@@H](CO)C(=O)N[C@@H](CC(=O)O)C(=O)N1CCC[C@H]1C(=O)N1CCC[C@H]1C(=O)N[C@@H]([C@@H](C)CC)C(=O)N2) [Example 73]
